This passage reports secretion of IL-8 and TNF-α by THP-1 cells treated with 5 μM IgG for 6 h (ELISA), against cells treated with wt 3D8 IgG results from PMC6131520.

The experiment addresses 3D8 IgG-N434D mutant (mouse | human).

Sequence of 3D8 IgG-N434D mutant (mouse | human) (heavy, as listed by the source, chain 1 of 2): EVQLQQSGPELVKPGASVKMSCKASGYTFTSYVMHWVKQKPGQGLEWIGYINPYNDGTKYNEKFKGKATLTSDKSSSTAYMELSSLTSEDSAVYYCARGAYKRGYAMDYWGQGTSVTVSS
Sequence of 3D8 IgG-N434D mutant (mouse | human) (light, as listed by the source, chain 2 of 2): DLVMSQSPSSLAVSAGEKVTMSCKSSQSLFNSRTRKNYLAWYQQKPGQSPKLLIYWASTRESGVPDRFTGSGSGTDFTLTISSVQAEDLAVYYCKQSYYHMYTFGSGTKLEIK

The substance “tripartite motif-containing 21 (TRIM21) (from UniProt P19474 1-475) (natural protein)” yielded a secretion of IL-8 and TNF-α by THP-1 cells treated with 5 μM IgG for 6 h (ELISA), against cells treated with wt 3D8 IgG of 40 % higher.
